Data: US20210252150A1 (VANDERBILT UNIVERSITY, published 2021)
Changes are numbered by the printed parent chain. Names may count otherwise. Where two headings read alike, the source gives them in different places.

Columns and labels:
[1] = target: T1, HA of A/California/04/2009 (H1N1) (influenza A virus (H1N1), UniProt P26140 18-529); test: ELISA (highest dilution tested 1/50,000)
[2] = target: HA of A/duck/Czechoslovakia/1956 (H4); test: ELISA, recombinant HA
[3] = target: T1, HA of A/California/04/2009 (H1N1); test: ELISA, recombinant HA
[4] = target: HA of A/duck/Czechoslovakia/1956 (H4); test: ELISA, recombinant HA; remark: listed apart in the source
[5] = target: T1, HA of A/California/04/2009 (H1N1); test: ELISA, recombinant HA; remark: listed apart in the source
[6] = target: T1, HA of A/California/04/2009 (H1N1); test: BLI, Fab on immobilized biotinylated HA
[7] = target: T1, HA of A/California/04/2009 (H1N1); test: BLI, Fab on immobilized biotinylated HA; remark: listed apart in the source
[8] = target: HA of A/Singapore/1/1957 (H2) (influenza A virus (H2), UniProt Q67333 16-525)
[9] = target: HA of A/Hong Kong/1/1968 (H3N2) (influenza A virus (H3N2), UniProt Q91MA7 17-530)

B1: H5.31 (antibody, V domains shown)
VH: EVQLVQSGGGLVQPGGSLRLSCEASRFTSSSYWITWVRQAPGKGLEWVANIKQDGSEKYFVDSVKGRFTISRDNASNSLYLQMSSLRAEDTAVYYCARGFLERLLLGRQGAYYYGMDVWGQGTTVTVSS
VL: DIQMTQSPSSLSASVGDRVTMTCRASQSISSSLNWYQQKPGKAPKLLIYAASNLQSGVPSRFSGSGSGTDFTLTISSLQPEDFATYYCQQSYTMPPELTFGGGTKVQIK
In the case of B1, the EC50 [1] is reported as 0.045 µg/mL.

B2: H5.28 (antibody, V domains shown)
VH: EVQLVESGGGLVQPGGSLRLSCAASGFTFSTYWMTWVRQAPGKGLEWVANINQDGGEKYFVDSVKGRFTISRDNAKNSLFLQMNTLRAEDTAVYYCARGFLERLLLGRQGAYYYGMDVWGQGTTVTVSS
VL: B1 VL with T20S, S28I, T93S, M94T, Q107E
In the case of B2, the EC50 [1] is reported as 0.074 µg/mL.

B3: UCA (antibody, V domains shown)
VH: QVQLQESGPGLVKPSETLSLTCTVSGGSVSSGSYYWSWIRQPPGKGLEWIGYIYYSGSTNYNPSLKSRVTISVDTSKNQFSLKLSSVTAADTAVYYCARGTEDLGYCSGGSCPNHWGQGTLVTV
VL: not shown
Binder B3 has an EC50 [2] of 0.025 µg/mL, an EC50 [3] of 0.14 µg/mL and an EC50 [4] of 0.013 µg/mL. The EC50 [5] was 0.051 µg/mL.

B4: FluA-20 UCA Fab (unmutated common ancestor of FluA-20) (Fab, V domains shown)
VH: B3 VH
VL: not shown
For B4, the Kd [6] was 1430 nM and the Kd [7] was 1430 nM.

B5: FluA-20 (hybridoma-produced IgG) (antibody, V domains shown)
VH: QVQLQESGPGLVKPSETLSLTCSVSGVSVTSDIYYWTWIRQPPGKGLEWIGYIFYNGDTNYNPSLKSRVTMSIDTSKNEFSLRLTSVTAADTAVYFCARGTEDLGYCSSGSCPNHWGQGTLVTVSS
VL: DIQMTQSPSSLSASIGDRVTITCRPSQNIRSFLNWFQHKPGKAPKLLIYAASNLQSGVPSRFSGSGSGTEFTLTIRSLQPEDFATYYCQQSYNTPPTFGQGTKVEIK
For B5, the EC50 [2] was 0.013 µg/mL and the EC50 [4] was 0.007 µg/mL.

B6: rFluA-20 light chain mutant N53A (antibody, V domains shown)
VH: B5 VH
VL: B5 VL with N53A
B6 gave an EC50 [8] of 0.16 µg/mL and an EC50 [9] of 0.06 µg/mL.

B7: rFluA-20 heavy chain mutant Y34A (antibody, V domains shown)
VH: B5 VH with Y34A
VL: B5 VL
For B7, the EC50 [8] was 0.11 µg/mL and the EC50 [9] was 0.07 µg/mL.

B8: rFluA-20 (recombinant FluA-20 IgG) (antibody, V domains shown)
VH: B5 VH
VL: B5 VL
In the case of B8, the EC50 [2] is reported as 0.018 µg/mL and the EC50 [4] is reported as 0.007 µg/mL.

B9: rFluA-20 heavy chain mutant Y100aA (antibody, V domains shown)
VH: B5 VH with Y106A
VL: B5 VL
In the case of B9, the “EC50 fold over wild-type rFluA-20” value [8] is reported as > 100 fold and the EC50 [9] is reported as 0.07 µg/mL.

B10: rFluA-20 heavy chain mutant T96A (antibody, V domains shown)
VH: B5 VH with T101A
VL: B5 VL
B10 showed an EC50 [8] of 0.07 µg/mL and an EC50 [9] of 0.1 µg/mL.

B11: rFluA-20 heavy chain mutant E97A (antibody, V domains shown)
VH: B5 VH with E102A
VL: B5 VL
Work on B11 yielded an EC50 [8] of 0.13 µg/mL and an EC50 [9] of 0.07 µg/mL.
